Target: vinculin (UniProt P18206)
Experiment: FLAG IP, LC-MS/MS spectral counting
Conditions: reference: FLAG-EZH2 wild type; sites T367

binding against the reference: weaker
Substance: EZH2 (from UniProt Q15910) FLAG-EZH2 T367A
